Measurements: patent US20050282254

Experiments:
[1] = target: recombinant protein of full size thioredoxine domain, protease recognition site and truncated C-terminal region (40 aa residues) of thioredoxin [thioredoxin: P0AA25]
[2] = target: T1, substrate with 6/G5 site
T1 chain: LGRAGAGIFSS

[3] = target: T2, substrate with 6/R5 site
T2 chain: LGRAGARIFSS

[4] = target: T3, substrate with 6/S5 site
T3 chain: LGRAGASIFSS

B1: Pro39 (C-terminal cysteine protease domain of Semliki Forest virus non-structural protein nsP2) (protein)
chain: KVIEGPAAPVDAFQNKANVCWAKSLVPVLDTAGIRLTAEEWSTIITAFKEDRAYSPVVALNEICTKYYGVDLDSGLFSAPKVSLYYENNHWDNRPGGRMYGFNAATAARLEARHTFLKGQWHTGKQAVIAERKIQPLSVLDNVIPINRRLPHALVAEYKTVKGSRVEWLVNKVRGYHVLLVSEYNLALPRRRVTWLSPLNVTGADRCYDLSLGLPADAGRFDLVFVNIHTEFRIHHYQQCVDHAMKLQMLGGDALRLLKPGGSLLMRAYGYADKISEAVVSSLSRKFSSARVLRPDCVTSNTEVFLLFSNFDNGKRPSTLHQMNTKLSAVYAGEAMHTAGC
cleavage efficiency, Pro39, SDS-PAGE [1]: non structured Ter substrate is poorly cleaved while Trx substrate is effectively cleaved
cleavage specificity, mass-spectrometry [2]: cleavage specificity was preserved for all of these modified recognition sites (demonstrated by mass-spectrometry)
cleavage specificity, mass-spectrometry [3]: cleavage specificity was preserved for all of these modified recognition sites (demonstrated by mass-spectrometry)
cleavage specificity, mass-spectrometry [4]: cleavage specificity was preserved for all of these modified recognition sites (demonstrated by mass-spectrometry)
